Where no end group is shown, it is not given here. [ ]: non-standard residue; d: D form. sY = N[C@@H](Cc1ccc(OS(=O)(=O)O)cc1)C(=O)O
Biological target: T1, mouse cholecystokinin 1 receptor (mouse (endogenous in isolated mouse pancreatic acini)) (UniProt O08786)
T1 sequence: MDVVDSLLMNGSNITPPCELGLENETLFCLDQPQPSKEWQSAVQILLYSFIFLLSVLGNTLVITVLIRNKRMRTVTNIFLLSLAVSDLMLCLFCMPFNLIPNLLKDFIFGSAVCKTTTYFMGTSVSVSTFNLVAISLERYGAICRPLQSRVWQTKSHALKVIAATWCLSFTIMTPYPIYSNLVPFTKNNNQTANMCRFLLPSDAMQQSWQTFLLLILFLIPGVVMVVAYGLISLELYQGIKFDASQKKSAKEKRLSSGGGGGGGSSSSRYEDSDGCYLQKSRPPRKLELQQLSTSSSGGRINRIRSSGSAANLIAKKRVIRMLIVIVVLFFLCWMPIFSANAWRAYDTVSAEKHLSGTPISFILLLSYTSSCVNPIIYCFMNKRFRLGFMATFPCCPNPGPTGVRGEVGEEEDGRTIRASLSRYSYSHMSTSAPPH

B1: Sulfated cholecystokinin octapeptide (peptide)
peptide: D[sY]MGWMDF-NH2
modifications: ends and bridges not checked
- CCK concentration needed to induce regular cytosolic calcium oscillations (Fura-2 imaging) in perifused isolated mouse pancreatic acini (data in Figure S1): 10 pM
